Test results published in patent publication US8629107B2, “Genes and proteins associated with angiogenesis and uses thereof” (National Jewish Health, priority 2005, dated 2014).

B1: MAGP-2: secreted glycoprotein (25 kDa); stably expressed in MB114 cells by bicistronic retroviral transduction, Myc-His tagged (protein)
chain: QRGDDVPETFTDDPNLVNDPSTDDTALADITPSTDDLAGDKNATAECRDEKFACTRLYSVHRPVRQCVHQSCFTSLRRMYIINNEICSRLVCKEHEAMKDELCRQMAGLPPRRLRRSNYFRLPPCENMNLQRPDGL
modifications: left off: small tags and cut ends
notes: secreted glycoprotein (25 kDa); stably expressed in MB114 cells by bicistronic retroviral transduction, Myc-His tagged
B2: rMAGP-2: recombinant FLAG-tagged MAGP-2 purified from bacterial cell extracts by anti-FLAG chromatography (protein, UniProt Q9QZJ6 29-164, looked up)
Microfibrillar-associated …: B1 chain
modifications: FLAG tag
notes: recombinant FLAG-tagged MAGP-2 purified from bacterial cell extracts by anti-FLAG chromatography

Experiments:
MB114 cells = experiment: cell invasion through Matrigel matrices, modified Boyden-chamber assay; format: cell-based, murine; details: MB114 cells stably expressing the transgene vs GFP; 48 h
Description: The effect putative angiogenic agents had on MB114 cell activities were determined as follows: (i) cell proliferation using a [^3H]thymidine incorporation assay as described (Albig et al, 2006; Albig and Schiemann, 2004; Albig and Schiemann, 2005); (ii) cell invasion through Matrigel matrices using a modified Boyden-chamber assay as described (Albig et al, 2006; Albig and Schiemann, 2004; Albig and Schiemann, 2005); (iii) p38 MAPK phosphorylation using immunoblot analyses as described (Albig et al, 2006; Albig and Schiemann, 2004; Albig and Schiemann, 2005); (iv) angiogenic sprouting in rat tail collagen matrices as described (Albig et al, 2006; Albig and Schiemann, 2004); and (v) Hes1- and SBE-driven luciferase reporter gene assays as described (Albig et al, 2006; Albig and Schiemann, 2004; Albig and Schiemann, 2005).
FIG. 1A show results from an experiment in which serum-starved MB114 cells, stably expressing either GFP or various putative angiogenic agents, were stimulated in the absence or presence of either bFGF (50 ng/ml) or EGF (10 ng/ml) for 24 h at 37° C. Differences in MB114 cell DNA synthesis was determined by measuring [^3H]thymidine incorporation into cellular DNA. […] In this experiment, invasion of MB114 cells expressing either GFP or various putative angiogenic agents through synthetic basement membranes was determined over 48 h using a modified Boyden-chamber assay.

[1] = test system: vessel formation and infiltration into Matrigel plugs; experiment: Matrigel plug implantation assay; format: in vivo, C57BL/6 mice; details: 1 μg/ml with bFGF 50 ng/ml vs bFGF alone; subcutaneous, C57BL/6 mice, day 10
Description: The effect of MAGP-2 on vessel formation and infiltration into Matrigel plugs implanted into genetically normal mice was determined as described (Albig et al, 2006). Briefly, phenol red-free Matrigel (BD biosciences, Bedford, Mass.) was mixed with PBS (diluent), bFGF (50 or 300 ng/ml; R&D Systems, Minneapolis, Minn.), or recombinant MAGP-2 (1 μg/ml) together with bFGF (50 ng/ml), and the resulting mixtures were injected twice subcutaneously in the ventral groin area (400 μl/injection) of C57BL/6 mice. The mice were sacrificed 10 days post-implantation and the Matrigel plugs were dissected, fixed overnight in 10% formalin, and sectioned in the National Jewish Histology Laboratory. Afterward, Masson's trichrome staining was performed to visualize infiltrating vessels, which were quantified under a light microscope by determining the average number of vessels present in 5 random fields (200× magnification). Only those fields that contained at least one vessel in the area underlying the skin were tallied. Two mice were used per experimental condition and this experiment was performed three times in its entirety. All animal studies were performed according to protocol procedures approved by the Animal Care and Use Committee at National Jewish Medical and Research Center.
The inventors tested this hypothesis by utilizing the Matrigel plug implantation assay, which monitors the ability of various angiogenic agents to alter vessel formation and infiltration into Matrigel plugs implanted subcutaneously into normal mice. […] MAGP-2 purity was monitored by coomassie staining, and by immunoblotting with anti-FLAG M2 monoclonal antibodies (FIG. 2A; right panel). rMAGP-2 (1 μg/ml) stimulated angiogenic sprouting of quiescent MB114 cell monolayers (FIG. 2A; left panel). […] Afterward, the Matrigel plugs were fixed, sectioned, and stained with Masson's trichrome to visualize infiltrating blood vessels (FIG. 2B; right panels; arrows denote blood vessels), which were quantified by manual counting under a light microscope. […]

Molecule | MB114 cell invasion through synthetic basement membranes (MB114 cells) | development and infiltration of vessels into Matrigel plugs [1]
B1 | significantly induced | 
B2 |  | significantly increased
